Experiments:
[1] = target: T1, AppC, subunit of Escherichia coli cytochrome bd-II oxidase (E. coli, UniProt P26459 1-514); test: cryo-EM structure; bd-II in amphipol A8-35, 5.6 mg/mL, incubated with aurachin D; 20 mM MOPS, 20 mM NaCl, pH 7.0; C2 symmetry imposed; 3.0 Å; details: both partners purified
T1 construct: AppC, cytochrome bd-II oxidase subunit, E. coli; predicted molecular mass 58.1 kDa; gene amplified from genomic DNA of strain BW25113; also called AppChis
T1 sequence: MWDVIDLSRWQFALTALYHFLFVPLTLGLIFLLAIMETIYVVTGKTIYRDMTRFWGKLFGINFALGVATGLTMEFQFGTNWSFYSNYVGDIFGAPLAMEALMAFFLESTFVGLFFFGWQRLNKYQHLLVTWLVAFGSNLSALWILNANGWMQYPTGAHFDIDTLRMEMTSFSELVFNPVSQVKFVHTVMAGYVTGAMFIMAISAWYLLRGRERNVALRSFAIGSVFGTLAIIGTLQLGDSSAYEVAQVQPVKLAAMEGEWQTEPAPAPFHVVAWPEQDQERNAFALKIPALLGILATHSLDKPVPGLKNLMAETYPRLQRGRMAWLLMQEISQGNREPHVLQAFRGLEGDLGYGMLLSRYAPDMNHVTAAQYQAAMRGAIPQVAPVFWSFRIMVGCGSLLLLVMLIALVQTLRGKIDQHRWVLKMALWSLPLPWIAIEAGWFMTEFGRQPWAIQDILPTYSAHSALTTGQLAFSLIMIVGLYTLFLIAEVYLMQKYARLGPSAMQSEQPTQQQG

[2] = target: the molecule itself; test: as above

B1: AppX, single helix subunit of Escherichia coli cytochrome bd-II oxidase (natural protein, E. coli)
chain: MWYLLWFVGILLMCSLSTLVLVWLDPRLKS
notes: AppX, cytochrome bd-II oxidase subunit, E. coli; length of 30 amino acid residues; predicted molecular mass 3.6 kDa; gene amplified from genomic DNA of strain BW25113
B1: binds [1]; binds [2].

B2: AppB, subunit of Escherichia coli cytochrome bd-II oxidase (natural protein)
chain: not shown
notes: AppB, cytochrome bd-II oxidase subunit, E. coli; predicted molecular mass 42.4 kDa; gene amplified from genomic DNA of strain BW25113
B2: binds [1].

— PMC8585947, “Structure of Escherichia coli cytochrome bd-II type oxidase with bound aurachin D” (Nature Communications, 2021)
